Test results: PMC2950906 (Nature structural & molecular biology, 2010)

Legend:
[1] = target: EcGspD fragment 1-237 (peri-GspD), N0-N1-N2 subdomains of the secretin from enterotoxigenic E. coli (enterotoxigenic E. coli); test: SPR
cryo-EM structure = target: the molecule itself; test: cryo-EM structure

B-pentamer of heat-labile enterotoxin (LTB5) (from UniProt P32890 22-124) (complex)
Kd [1]: 15.5 µM

B1: V. cholerae GspD secretin (VcGspD), full-length recombinant channel (natural protein)
chain: NEFSASFKGTDIQEFINIVGRNLEKTIIVDPSVRGKVDVRSFDTLNEEQYYSFFLSVLEVYGFAVVEMDNGVLKVIKSKDAKTSAIPVLSGEERANGDEVITQVVAVKNVSVRELSPLLRQLIDNAGAGNVVHYDPANIILITGRAAVVNRLAEIIRRVDQAGDKEIEVVELNNASAAEMVRIVEALNKTTDAQNTPEFLKPKFVADERTNSILISGDPKVRERLKRLIKQLDVEMAAKGNNRVVYLKYAKAEDLVEVLKGVSENLQAEKGTGQPTTSKRNEVMIAAHADTNSLVLTAPQDIMNAMLEVIGQLDIRRAQVLIEALIVEMAEGDGINLGVQWGSLESGSVIQYGNTGASIGNVMIGLEEAKDTTQTKAVYDTNNNFLRNETTTTKGDYTKLASALSSIQGAAVSIAMGDWTALINAVSNDSSSNILSSPSITVMDNGEASFIVGEEVPVITGSTAGSNNDNPFQTVDRKEVGIKLKVVPQINEGNSVQLNIEQEVSNVLGANGAVDVRFAKRQLNTSVMVQDGQMLVLGGLIDERALESESKVPLLGDIPLLGQLFRSTSSQVEKKNLMVFIKPTIIRDGVTADGITQRKYNYIRAEQLFRAEKGLRLLDDASVPVLPKFGDDRRHSPEIQAFIEQMEAKQ
stoichiometry N (cryo-EM structure): 12
